Results on one molecule are retold here after patent US20240269194A1 (CITY OF HOPE, published 2024).

In this assay the target is [^68Ga]-DO3A-VS-Cys40-labeled Exendin-4 (UniProt P26349 48-86). In words: saturation binding of the radiolabeled probe on INS-1 cells.

B1: GLP-1R expressed by INS-1 cells (receptor)
chain: GPRPQGATVSLSETVQKWREYRHQCQRFLTEAPLLATGLFCNRTFDDYACWPDGPPGSFVNVSCPWYLPWASSVLQGHVYRFCTAEGIWLHKDNSSLPWRDLSECEESKQGERNSPEEQLLSLYIIYTVGYALSFSALVIASAILVSFRHLHCTRNYIHLNLFASFILRALSVFIKDAALKWMYSTAAQQHQWDGLLSYQDSLGCRLVFLLMQYCVAANYYWLLVEGVYLYTLLAFSVFSEQRIFKLYLSIGWGVPLLFVIPWGIVKYLYEDEGCWTRNSNMNYWLIIRLPILFAIGVNFLVFIRVICIVIAKLKANLMCKTDIKCRLAKSTLTLIPLLGTHEVIFAFVMDEHARGTLRFVKLFTELSFTSFQGFMVAVLYCFVNNEVQMEFRKSWERWRLERLNIQRDSSMKPLKCPTSSVSSGATVGSSVYAATCQNSCS
notes: whole, on cells; Endogenous receptor on INS-1 cells and INS-1 tumors in mice; also called GLP-R1
Turning to B1, the Kd – broadly, a measure of binding affinity in units of concentration – worked out at 8.6 nM. This lies in the single-digit nanomolar range.
